The source of these data is the supplement of paper PMC9170038.

In this series the test system is MS2 coat protein. Briefly: apparent KD of MS2 coat protein; designed switch direction (-1 OFF switch, 1 ON switch): 1; higher = weaker reporter binding. The method in brief:
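Stalled E. coli RNA polymerase transcribed designed RNA switches on Illumina chips, which were then titrated with SNAP-549-labelled MS2 coat protein, doubling from 0.7 or 1.5 nM to 3 µM. Steps lasted from 0.8–1.5 h at the lowest concentration to 10–20 min at the highest. The apparent KD is each design's median over clusters of curve-fitted normalised fluorescence.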

Setting [1] is: input ligand: microRNA oligo, concentration not stated.
The mark [2] stands for this setting: Eterna round: R95, input ligand: FMN 200 uM.
Where [3] appears, read: Eterna round: R95, input ligand: microRNA oligo, concentration not stated.
Where [4] appears, read: Eterna round: R95, input ligand: none.

Consider “UGGCUCAGACUAGGAUAUACGUGGUCACAUGAGGAUCACCCAUGUCUCGAGCUUCGGCUCGAGGCGUAGAAGGAGUCUGAGCCU [SSNG2/6-D3] (Eterna round: R96, puzzle: Same State NG 2)”, for which the “apparent KD of MS2 coat protein” value is, setting by setting: (input ligand: FMN 200 uM) 0.126 µM; under setting [1], 0.245 µM; (input ligand: none) 0.334 µM.
For “UGGCUCAGACUAGGAUAUAUGUGGUCACAUGAGGAUCACCCAUGUCUCGAGCUUCGGCUCGAGGCAUAGAAGGAGUCUGAGCCA [SSNG2/5-D2] (Eterna round: R96, puzzle: Same State NG 2)”, the “apparent KD of MS2 coat protein” value runs as follows: (input ligand: FMN 200 uM) 1.54 µM; under setting [1], 0.329 µM; (input ligand: none) 0.0265 µM.
As to “UGGCUGAGUCGAGGAUAUGAUCUUCAUAUAAUAACAUGAGGAUCACCCAUGUAUAAUUACAUGGAUCAGAAGGCGACUCAGCCA [SSNG2/13-B2] (Eterna round: R96, puzzle: Same State NG 2)”, the “apparent KD of MS2 coat protein” value under setting [1] amounted to 0.362 µM.
Take “UGGUAACAUGAGGAUCACCCAUGUCAAAUGAAUCGAGGAUAUGGGAAAGGAGAAGAGAAACUAGAAGGCGAAGUUG [Altered State 1-12 - Jieux - Same State 1] (puzzle: Same State 1)”: the “apparent KD of MS2 coat protein” value was found to be 0.202 µM under setting [2], 0.191 µM under setting [3] and 0.148 µM under setting [4].
“UGGUACAUGGGAGGAUAUCAUGUAGAAACAUGAGGAUCACCCAUGUAGGUGGCACGAUUCGUGAAUGAGAAGGCCCAUGUACCU [JL SSNG1 3.61] (Eterna round: R96, puzzle: Same State NG 2)”: the “apparent KD of MS2 coat protein” value was determined as 0.312 µM (input ligand: FMN 200 uM), 0.225 µM under setting [1] and 0.376 µM (input ligand: none).
For the sequence “UGGUACAUGGGAGGAUAUCCUCAGGAGACAUGAGGAUCACCCAUGUAUUAUAAGCCGAAAGGCAUGGAGAAGGCCCAUGUACCU [JL SSNG1 3.82] (Eterna round: R96, puzzle: Same State NG 2)”, the “apparent KD of MS2 coat protein” value (input ligand: FMN 200 uM) was found to be 0.0141 µM, the “apparent KD of MS2 coat protein” value under setting [1] turned out to be 0.112 µM and the “apparent KD of MS2 coat protein” value (input ligand: none) was 0.123 µM.
For “UGGUACAUGGGAGGAUAUCCUCAUGAGACAUGAGGAUCACCCAUGUAUUAUAAGCCGAAAGGCAUGGAGAAGGCCCAUGUACCU [JL SSNG1 3.83] (Eterna round: R96, puzzle: Same State NG 2)” the same measures were 0.025 µM, 0.269 µM and 0.455 µM.
Consider “UGGUACAUGGGAGGAUAUGGGCAUGAGACAUGAGGAUCACCCAUGUAUUAUAAGCCGAAAGGCAUCUAGAAGGCCCAUGUACCU [JL SSNG1 3.84] (Eterna round: R96, puzzle: Same State NG 2)”, for which the “apparent KD of MS2 coat protein” value runs as follows: (input ligand: FMN 200 uM) 0.0142 µM; under setting [1], 0.0683 µM; (input ligand: none) 0.0924 µM.
As for “UGUACAUGAGGAUCACCCAUGUCUAGACAUGUUAAUAUAAUGUAGGAUAUAUAAAAUUUAAUUUAAUAGAAGGACAAUUUUUUU [JMF's solution 1] (Eterna round: R96, puzzle: Same State NG 3)”, the “apparent KD of MS2 coat protein” value by setting is: (input ligand: FMN 200 uM) 0.278 µM; under setting [1], 0.218 µM; (input ligand: none) 0.297 µM.
Take “UGUCCAGCCUGAGCUGGACAAAAGCAUGUACAUGAGGAUCACCCAUGUUCAUGUACAAGCUUUUUGCUCGUCUUAAU [salish99_208a_r3_031] (puzzle: Sensor for hsa-mir-208a)”: the “apparent KD of MS2 coat protein” value under setting [2] was found to be 0.497 µM, the “apparent KD of MS2 coat protein” value under setting [3] turned out to be 0.0141 µM and the “apparent KD of MS2 coat protein” value under setting [4] was determined as 0.445 µM.
With “UGUCCAGCCUGAGCUGGACAAAAGCAUGUACAUGAGGAUCACCCAUGUUCAUGUACAAGCUUUUUGCUCGUCUUACG [salish99_208a_r3_082] (puzzle: Sensor for hsa-mir-208a)”, the “apparent KD of MS2 coat protein” value runs as follows: under setting [2], 0.763 µM; under setting [3], 0.015 µM; under setting [4], 0.69 µM.
